Consider 3 molecules from publication PMC3035050 (Molecular microbiology, 2008).

Residue numbers refer to the chain shown, from its start.

Sequences and labels used below:
B1: Bacillus stearothermophilus primase DnaG (native) (enzyme, B. stearothermophilus, UniProt Q9X4D0 1-597, looked up)
chain: MGHRIPEETIEAIRRGVDIVDVIGEYVQLKRQGRNYFGLCPFHGEKTPSFSVSPEKQIFHCFGCGAGGNAFTFLMDIEGIPFVEAAKRLAAKAGVDLSVYELDVRGRDDGQTDEAKAMTEAHALLKRFYHHLLVHTKEGQAALDYLQARGWTKETIDRFEIGYAPDAPDAAAKLLESHSFSLPVMEKAGLLTKKEDGRYVGRFRNRIMFPIHDHRGETVGFSGRLLGEGHPKYVNSPETPVFRKGAILYHFHAARVPIRKRQEALLVEGFADVISAAQAGIDYAIATMGTSLTEEQARILRPCDTITICYDGDRAGIEAAWAAAEQLSALGCRVKVASLPNGLDPDEYIRVYGGERFAGEAGCRRPLVAFKMAYLRRGKNLQHEGERLRYIDEALREIGKLSSPVEQDYYLRQLAEEFSLSLSALHEQLSRSQRERTKPREAPDGETARPMLAKKLLPAFQNAERLLLAHMMRSRDVALVVQERIGGRFNIEEHRALAAYIYAFYEEGHEADPGALISRIPGELQPLASDVSLLLIADDVSEQELEDYIRHVLNRPKWLMLKVKEQEKTEAERRKDFLTAARIAKEMIEMKKMLSSS
B2: Bacillus stearothermophilus replicative helicase DnaB (native) (enzyme, B. stearothermophilus)
chain: MSELFSERIPPQSIEAEQAVLGAVFLDPAALVPASEILIPEDFYRAAHQKIFHAMLRVADRGEPVDLVTVTAELAASEQLEEIGGVSYLSELADAVPTAANVEYYARIVEEKSVLRRLIRTATSIAQDGYTREDEIDVLLDEADRKIMEVSQRKHSGAFKNIKDILVQTYDNIEMLHNRDGEITGIPTGFTELDRMTSGFQRSDLIIVAARPSVGKTAFALNIAQNVATKTNENVAIFSLEMSAQQLVMRMLCAEGNINAQNLRTGKLTPEDWGKLTMAMGSLSNAGIYIDDTPSIRVSDIRAKCRRLKQESGLGMIVIDYLQLIQGSGRSKENRQQEVSEISRSLKALARELEVPVIALSQLSRSVEQRQDKRPMMSDIRESGSIEQDADIVAFLYRDDYYNKDSENKNIIEIIIAKQRNGPVGTVQLAFIKEYNKFVNLERRFDEAQIPPGA

The target in assay [1] is Bacillus stearothermophilus replicative helicase DnaB (native) (B. stearothermophilus) (UniProt Q9X4C9). Put plainly: ITC.
Assay [2] concerns the target B2. Nature of the assay: ITC.
In assay [3] the target is T1, B. stearothermophilus primase DnaG R555A (B. stearothermophilus, UniProt Q9X4D0 1-597, R555A).
T1 sequence (looked up): B1 chain with R555A
Nature of the assay: SEC.

Assay [4] deals with T2, B. stearothermophilus primase DnaG R495A (B. stearothermophilus, UniProt Q9X4D0 1-597, R495A).
T2 sequence (looked up): B1 chain with R495A
Nature of the assay: SEC.

Assay [5] addresses T3, B. stearothermophilus primase DnaG H494A (B. stearothermophilus, UniProt Q9X4D0 1-597, H494A).
T3 sequence (looked up): B1 chain with H494A
Nature of the assay: ITC.

For assay [6], the target named is B1. Nature of the assay: ITC.
Assay [7] addresses T4, B. stearothermophilus primase DnaG E464G (B. stearothermophilus, UniProt Q9X4D0 1-597, E464G).
T4 sequence (looked up): B1 chain with E464G
Nature of the assay: ITC.

In assay [1], “B. stearothermophilus primase DnaG Y548A (from UniProt Q9X4D0 1-597) (enzyme)” yielded a Kd of 83.3 nM and a stoichiometry N of 0.509.

On to B1, for which, in assay [2], the dH is 17.8 kcal/mol and the “stoichiometry N” value is 0.287.

In the case of B2, the binding result in assay [3] and in assay [4] was “binds” each time. For the same molecule, the figures for the Ka in assay [5], in assay [6] and in assay [7] were 1.18e+08 M⁻¹, 1.42e+08 M⁻¹ and 1.18e+08 M⁻¹, respectively. Also, the results for the Kd in assay [5], in assay [6] and in assay [7] were 8.5 nM, 7.04 nM and 8.5 nM, respectively.
